Source: the DeepSol protein solubility set

test: soluble on expression in E. coli; label from the status in PepcDB or PDB records

| Sequence | soluble on expression in E. coli |
| --- | --- |
| MGSDKIHHHHHHMRFWDIRRVENVSLNLQLENGKLEKPRYNKSTSKGFRVLKNGFWGIFEGNVADDEGLRQAEKNAFTQGDGDIEEIATKGRYRMRVKRDPQDMSIEEKVELLKDLEKIIRDVCVSTKLVYFENRRVLQYRDSCGSEVEYEVLRTGVSIMGVGKGRSLQFLSKRQMRVGGYEVLDGVDEKAYEIVEVLPKLVNALAPPSGEMSVVMDSSLAGVFVHEAFGHAVEADHVLQGATVLKGRLNEKVADESVTIIDDPTLPEFGFFPFDDEGVRAEKKVIVEDGVLKSFLHSRETAKKLGGVAGNARSQGVDVPIVRMSNTYIDTHHYSFDELLEECRDGVYLVGSRGGETNPATGYFHFNAQYGYLIKNGELAEMVRDVSLSGNTLEILRNVKIGREIEFDPGFCGKAGQLVPVSDGSPPVLCRATVGGA | not soluble |
| GMYANKVKKIAAVHDLSGMGRVSLTVVIPILSSMGFQVCPLPTAVLSNHTQYPGFSFLDLTDEMPKIIAEWKKLEVQFDAIYTGYLGSPRQIQIVSDFIKDFRQPDSLIVADPVLGDNGRLYTNFDMEMVKEMRHLITKADVITPNLTELFYLLDEPYKADSTDEELKEYLRLLSDKGPQVVIITSVPVHDEPHKTSVYAYNRQGNRYWKVTCPYLPAHYPGTGDTFTSVITGSLMQGDSLPMALDRATQFILQGIRATFGYEYDNREGILLEKVLHNLDMPIQMASYELI | soluble |
| SGRARRAEQDARAVELGLQLVGDNLQVLHAGNPAEPALRAYLGMGLSELHVLEQPDGADALAALTDYIRDSGAQMVLAGSQAETGEGSGMLPFLLAEGLGWPLVTGLAEVESLSNGTALVLQALPRGQRRRLKVRLPFLATVDNAAPAPRQSAYGPAQRGILDVDKIETVIDDLFTAQSLQPAKPRPKRLKVIKAKSGADRMKAATAKASGGSGQVLKGLSPEQSAAAILKLLIDEGVV | not soluble |
| MGSDKIHHHHHHMSFRMIEPETIDDAAFVSSTVPETDAPVWDASTDYPFSDPDNPEEVIVEVGQHAIYRAVAPSGPSHGGAVDPATDTGNTKWVKIRSTNRWRVFDEYIGDPSVQANSAQWVITAPKVIDSVSLFGLYALSVTVLVRDSGGAEVYNQTYSLQDESGVVDLYTYLTSPIILSDRLVITDIPPYAGAKVTVTAEASGEDVEVGQIVIGRKEEIGVTIDEIPLSIQDFSRKERDPDFGRVSLLEKDFADEMPVAFVFPTSRASYLKSRLASRRAKLTVYSSDGPYKANEFSVYGFYQSFQVVPRIGSESEGILELESIT | not soluble |
| MSRGLLEACIEFIRETPAGDALRIVAYEFTFKRILLELKAALERGVDVRIVYHATTANEKAIADAKLPENSKGVQILFKRTRPQTPHNKFIVRLKKGKTPVSVWTGSTNFTPSGFLGQTNVGHKVTDGDIAKIYLQLWEGLKADPDDFDATQLEHHHHHH | not soluble |
| MAHHHHHHMSSVLKADVKEYIPSWANKRSSGVNPAATSTNKNGFATSVPTSNVMTTHSGCTGINAQNFTSSPRAAAGLPLCSPTTALRLPTRMSPMHAPFPSVSISMNPNATDFVPHLTGANSLAPLPTSTADLAEEKERQQKQESHLSSSMKWTTTSTRKNITQPALPLAVKANFTPTFAPIYVEKTEEEILEISKRSSLKVGAAAFVPRRTLNRVMIAKPSPFSLTPATGEMTLGDLWCLFYLPAGLGECIRENTYDPTLVFRVDSVATFWKVFNNIPQPTEMKIGTLYFFRDGINPKWEDPGNRDGGILKMKLDSHCINDAWVYLLCRTIGESWSKSVRDTVNGVALKARERAYLLEVWVTEQSAELMMDISELLRPLLGDVFSVFYAPHSVTQERAAAAALAEKKRSRNNRRRW | not soluble |
| MPDLTKARCPCRGCNKVANNAEEVEELFGLRNMGDGTIRVQSYCRECRGLHCEASNPKCNHHA | not soluble |
| MEVVEAAAAQLETLKFNGTDFGVGEGPAAPSPGSAPVPGTQPPLQSFEGSPDAGQTVEVKPAGEQPLQPVLNAVAAGTPAPQPQPPAESPACGDCVTSPGAAEPARAPDSLETSDSDSDSDSETDSDSSSSSSSSSSSSSSSSSSCISLPPVLSDGDDDLQVEKENKNFPLKTKDELLLNELPSVEELTIILPEDIELKPLGMVSSIIEQLVIIESMTNLPPVNEETVIFKSDRQAAGKIFEIFGPVAHPFYVLRFNSSDHIESKGIKIKETMYFAPSMKDFTQYIFTEKLKQDKGSDASWKNDQEPPPEALDFSDDEKEKEAKQRKKSQIQGRKKLKSEFNEPGEDFTEVHQNWNAHSSASEHAKGYRNREFTRGFSRARYPRSCHGRPPPQHFYNSEHMVSQETSGFPSQRQNNPIMPQYPFPLPVFDMHNFPLRPPPPPPPPPVNMGWATPNMAAHPLLNLPYSLPPPPPPPPLPPPPSSGDSNSHFGPYY | soluble |
| MGSDKIHHHHHHMPQISVTILRGADTIGGSCVKINHGEDSIVLDYGAPLMDSTGVSIDADLASSPSMENGILLDIQQQDTRPPLAYLLSHAHPDHYGLLRSLPKSSNIYLSDSSYSMMTIGNLFYPEALRFSSLEQCRQFTPGKPFQVGPFTVTAFLMDHSAFGACSLLIEVDGKQVYYTGDFRGHGRKSQVSDYIYANVKQPDLMLLEGTTLNGGHSLQFPTEVSVEDAMVSALNEGDGPAFVSASGSNIDRIVSLYNATKRTGKELVIDLYQLYLLEALKKYSPSLPPHKNDHLKVIFPQFQLAIIKSEFGDDFLRYSNRHVNLSKLKGTNYVFRLSPYAMTPYLDSFKEKGVKPKLIYSMWLGYQSKQPKFAEIANKYQESWQYIHTSGHAYLEHLQSFAGNISPKVLVPIHTLNRDKFSSYFDNVRIVENGESIVCE | not soluble |
| GPGSMKKTVAAAPPKSPAPAKSKISVTRTGVNTTYPMPPPMPEKNYAPFFAEGCQTIAASKASMPPVQPASPLPPMHSAPPTASVVSNSIPPSSPATAPGERSPAVAARSVPTRFSPATVPRHHMNPNATEFMPGRRNGPDGGLEALPTSTADMELAKTPAGAAAAAVHAPSLPGAVRRSLQNSPIIQPSRLSVKSASEIEAISKNSALNAAAAAYVPQRTLARVVLTQPSPLALAPSEDPAKNNIEMMLDDLWCLFYLPTTLGENIKEEDYNPTLVFRVDSILTFWRVVNNIAAPSELQLSTLYLFRDGIDPKWEDPANRDGGIVKVKATAAQVDEAWELLLCRTIGDSWSPSVRETVNGVVLKVRERAYWLELWVTKNSSALQKDLAELWHPILGASFATTYLTHAMMQERSHAAAALAAEKQKKNRRRY | soluble |
| MASRRSNAKSRDKPDKYSVLLPTYNERENLPLIVWLLVKYFGESGYNYEIIVIDDGSPDGTLQIAEQLQKIYGADKILLRPRAEKLGLGTAYIHGIKHATGNFVIIMDADLSHHPKFIPQFIEKQKEGGYDLVSGTRYRGDGGVYGWDLRRKLISRGANFVTQVLLRPGASDLTGSFRLYKKEVLEKLVEQCVSKGYVFQMEMIVRARQLGYTIGEVPISFVDRVYGESKLGGNEIVSFLKGLLTLFATT | not soluble |
| SARLADYFIVVGYDHEKPGSGEGLGKIIQRFPQKDWDDTPFPQGIELFCQPGGWQLSRERKQPTFFVVVLTDIDSDRHYCSCLTFYEAEINLQGTKKEEIEGEAKVSGLIQPAEVFAPKSLVLVSRLYYPEIFRACLGLIYTVYVDSLNVSLESLIANLCACLVPAAGGSQKLFSLGAGDRQLIQTPLHDSLPITGTSVALLFQQLGTVAHACNLSTLGGRGGQLTRSGDRDHPG | soluble |
| VEGAVKTEPVDLFHPGFLNSSNYRIPALFKTKEGTLIASIDARRHGGADAPNNDIDTAVRRSEDGGKTWDEGQIIMDYPDKSSVIDTTLIQDDETGRIFLLVTHFPSKYGFWNAGLGSGFKNIDGKEYLCLYDSSGKEFTVRENVVYDKDSNKTEYTTNALGDLFKNGTKIDNINSSTAPLKAKGTSYINLVYSDDDGKTWSEPQNINFQVKKDWMKFLGIAPGRGIQIKNGEHKGRIVVPVYYTNEKGKQSSAVIYSDDSGKNWTIGESPNDNRKLENGKIINSKTLSDDAPQLTECQVVEMPNGQLKLFMRNLSGYLNIATSFDGGATWDETVEKDTNVLEPYCQLSVINYSQKVDGKDAVIFSNPNARSRSNGTVRIGLINQVGTYENGEPKYEFDWKYNKLVKPGYYAYSCLTELSNGNIGLLYEGTPSEEMSYIEMNLKYLESGANK | soluble |
